Laboratory results reported in US20260234242A1 (HAINAN SIMCERE ZAIMING PHARMACEUTICAL, published 2026).
Where two headings read alike, the source gives them in different places.

T1: human CDH6 on tumor cells (OVCAR3 cells, PA-1 cells) (human, UniProt P55285 54-790)
T1 sequence: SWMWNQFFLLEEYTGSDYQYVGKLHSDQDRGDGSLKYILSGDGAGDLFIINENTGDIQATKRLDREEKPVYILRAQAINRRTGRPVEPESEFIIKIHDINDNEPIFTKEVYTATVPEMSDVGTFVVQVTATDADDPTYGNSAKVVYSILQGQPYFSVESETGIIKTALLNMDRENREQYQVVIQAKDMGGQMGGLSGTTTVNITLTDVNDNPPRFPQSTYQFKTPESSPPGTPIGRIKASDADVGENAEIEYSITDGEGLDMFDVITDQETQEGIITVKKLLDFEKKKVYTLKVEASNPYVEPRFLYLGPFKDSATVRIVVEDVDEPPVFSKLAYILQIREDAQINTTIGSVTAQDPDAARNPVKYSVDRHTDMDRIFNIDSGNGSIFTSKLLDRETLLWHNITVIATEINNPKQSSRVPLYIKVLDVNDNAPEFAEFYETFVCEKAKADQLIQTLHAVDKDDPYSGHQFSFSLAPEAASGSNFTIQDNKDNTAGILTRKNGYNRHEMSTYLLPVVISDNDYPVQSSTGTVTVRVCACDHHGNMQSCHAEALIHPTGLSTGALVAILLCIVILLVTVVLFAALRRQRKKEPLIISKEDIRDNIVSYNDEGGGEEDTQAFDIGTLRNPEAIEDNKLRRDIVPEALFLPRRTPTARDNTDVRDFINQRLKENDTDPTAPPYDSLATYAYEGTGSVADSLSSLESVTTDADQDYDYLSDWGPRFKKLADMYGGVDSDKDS

T2: his-tagged human CDH6 extracellular region protein (hCDH6 ECD-his) (human, UniProt P55285 19-615)
T2 construct: also called Human CDH6-his; hCDH6-his; not shown: his tag
T2 sequence: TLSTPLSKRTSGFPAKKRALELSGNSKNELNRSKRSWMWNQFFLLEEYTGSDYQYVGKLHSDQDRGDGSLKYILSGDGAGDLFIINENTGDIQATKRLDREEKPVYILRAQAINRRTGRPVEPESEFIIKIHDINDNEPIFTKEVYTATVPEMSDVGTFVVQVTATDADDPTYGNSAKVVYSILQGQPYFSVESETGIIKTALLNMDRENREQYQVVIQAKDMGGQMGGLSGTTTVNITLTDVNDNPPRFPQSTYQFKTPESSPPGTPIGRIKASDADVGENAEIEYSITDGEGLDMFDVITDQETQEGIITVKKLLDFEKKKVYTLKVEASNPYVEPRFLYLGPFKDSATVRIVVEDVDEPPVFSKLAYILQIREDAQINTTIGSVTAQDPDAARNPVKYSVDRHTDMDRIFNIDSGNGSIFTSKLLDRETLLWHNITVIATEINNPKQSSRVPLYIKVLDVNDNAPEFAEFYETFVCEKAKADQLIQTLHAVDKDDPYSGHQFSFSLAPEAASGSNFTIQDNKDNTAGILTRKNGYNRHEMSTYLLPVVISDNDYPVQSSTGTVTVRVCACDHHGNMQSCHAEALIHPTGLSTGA


Columns and labels:
[1] = target: T1, human CDH6 on tumor cells (OVCAR3 …); assay: FACS, OVCAR3 cells
Method: OVCAR3 cells with high expression of CDH6 and PA-1 cells with moderate expression of CDH6 were used to detect the binding activity of the antibodies to the cells. […] The cells were washed once with PBS, counted, resuspended to 2×10⁶ cells/mL in an FACS buffer (PBS+2% FBS), and then added to a 96-well plate at 50 μL/well. The chimeric antibodies were diluted with FACS buffer (PBS+2% FBS) and added to the 96-well plate at 50 μL/well, and the plate was incubated at 4° C. for 1 h. […] The dilution was added to the 96-well plate at 50 μL/well, and the plate was incubated at 4° C. for 1 h. After the plates were centrifuged and washed 2 times with PBS, the cells were resuspended in an FACS buffer. The mean fluorescence intensity (MFI) was measured using FACS Canton II (BD). Analysis was performed by the GraphPad Prism software, data were fitted, and EC50 values were calculated. The chimeric antibodies tested had strong binding to both OVCAR3 cells and PA-1 cells.
According to the above sequences, heavy chain (HC) and light chain (LC) plasmids were constructed (the nucleic acid sequences encoding the VH and VL of the antibodies were recombined into an expression vector carrying a signal peptide (SEQ ID NO: 132, […]) and a heavy chain constant region/light chain constant region sequence to obtain recombinant plasmids expressing VH-CH1-Fc/VL-CL). According to the expression and purification methods in Example 2, the hCDH6-1 humanized antibodies were obtained, and the binding activity of the humanized antibodies was detected by ELISA and FACS (see 2.2 and 2.3 for the method).

[2] = target: T2, his-tagged human CDH6 extracellular …; assay: SPR Biacore, antibody captured on Protein A
Method: (§1) The affinity of the antibody for the antigen was determined by a multi-cycle kinetic method using a BIAcore 8K instrument. In each cycle, the antibody to be tested was captured using a Protein A chip (purchased from GE, Cat. No. 29-1275-56), and then the antigen human CDH6 protein (hCDH6-his, conventionally synthesized) was injected. The association and dissociation processes of the antibody with the antigen protein were recorded, and finally, the chip was regenerated using Glycine pH 1.5, wherein the mobile phase was HBS-EP+ (10 mM HEPES, 150 mM NaCl, 3 mM EDTA, 0.05% surfactant P20, and 1 mM Ca), the flow rate was 30 μL/min, the association time was 240 s, the dissociation time was 300 s, the regeneration time was 30 s, the detection temperature was 25° C., and the antigen concentration was 31.25-1000 nM. The data were analyzed using Biacore 8K analysis software (version No. 2.0) based on the 1:1 binding model to fit the antibody-antigen binding kinetic parameters, including the association rate constant ka, the dissociation rate constant kd, and the equilibrium dissociation constant KD. The affinity values of the control antibody DS-H01L02 were undetectable. Antibodies not shown in the table had undetectable affinity values.
Four hCDH6-1 humanized antibodies with fewer back mutations were selected, and the affinity for human CDH6 protein was further confirmed using Biacore.

[3] = target: T2, his-tagged human CDH6 extracellular …; assay: SPR Biacore, antibody captured on Protein A; remark: listed apart in the source
Method: as §1
Four hCDH6-6 humanized antibodies with fewer back mutations were selected, and the affinity for human CDH6 protein was further confirmed using Biacore.

Binder | EC50 [1] [nM] | Max MFI [1] [MFI] | Kd [2] [nM] | koff [2] [s⁻¹] | kon [2] [M⁻¹ s⁻¹] | Kd [3] [nM] | koff [3] [s⁻¹] | kon [3] [M⁻¹ s⁻¹]
CHI-CDH6-1 (antibody, human IgG1, kappa, V domains shown, also called CHI-hCDH6-1; CH1-CDH6-1) VH: QVQLQQPGAELVRPGSSVKLSCKASGYTFTNYWMHWVKQRPIEGLEWIGDIDPSHSETHYTQKFKDKATLTVDKSSSTAYMQLSSLTSEDSAVYYCARGDLGRFDYWGQGTTLTVSS VL: DIVLTQSPASLAVSLGQRATISCRASESVSIHGTHLMHWYQQKSGQPPKLLIYAASNLESGVPARFSGSGSETDFTFNIHPVEEEDAATYFCQQSFEDPWTFGGGTKLEIKR | 0.194 | 14900 | 11.4 | 0.00504 | 442000 | – | – | –
CHI-CDH6-6 (antibody, human IgG1, kappa, V domains shown, also called CHI-hCDH6-6; chimeric antibody of murine CDH6-6) VH: EVQLQQSGPELVKPGDSVKMSCKASGYTFTDYYMAWVRQSHRKSLEWIGYIFPNSGGTDYSQKFKGKATLTVDKSSSTVYMELHSLTSEDSAVYYCARELGADYGDYYAMDHWGQGTSVSVSS VL: DIQMTQSPASLSASVGETVTITCRASENIDSYLAWYQQKQGKSPQLLVYSATLLADGVPSRFSGSGSGTQYSLKINSLKSEDVARYYCQHYYRTPPTFGSGTKLEIKR | – | – | – | – | – | 87.1 | 0.00424 | 48700

More lines, now with the values ahead:

EC50 [1] [nM] | Max MFI [1] [MFI] | Kd [2] [nM] | koff [2] [s⁻¹] | kon [2] [M⁻¹ s⁻¹] | Kd [3] [nM] | koff [3] [s⁻¹] | kon [3] [M⁻¹ s⁻¹] | Binder
0.17 | 14800 | 18 | 0.00821 | 457000 | – | – | – | hCDH6-1-H2L3 (antibody, V domains shown, Humanized) VH: EVQLVQSGAEVKKPGSSVKVSCKASGYTFTNYWMHWVRQAPGQGLEWMGDIDPSHSETHYTQKFKDRVTITVDKSTSTAYMELSSLRSEDTAVYYCARGDLGRFDYWGQGTTVTVSS VL: DIQMTQSPSSLSASVGDRVTITCRASESVSIHGTHLMHWYQQKPGKPPKLLIYAASNLESGVPSRFSGSGSETDFTFTISSLQPEDIATYYCQQSFEDPWTFGGGTKVEIK
– | – | – | – | – | 89.8 | 0.00468 | 52100 | hCDH6-6-H2L2 (antibody, V domains shown, Humanized) VH: EVQLVQSGAEVKKPGASVKVSCKASGYTFTDYYMAWVRQAPGQGLEWMGYIFPNSGGTDYSQKFKGRVTLTVDKSTSTVYMELSSLRSEDTAVYYCARELGADYGDYYAMDHWGQGTTVTVSS VL: DIQMTQSPSSLSASVGDRVTITCRASENIDSYLAWYQQKPGKSPKLLVYSATLLADGVPSRFSGSGSGTDYTLTISSLQPEDFATYYCQHYYRTPPTFGQGTKLEIK
